Measurements taken from patent publication US7723091B2 (priority 1999, dated 2010).
Marks after values point to notes of the source that are not given here.

Tests used:
Cryptosporidium = experiment: SCID mouse model of Cryptosporidium infection; settings: for Parasite load (SD) Day 21 / Parasite load (SD) Day 28 / Parasite load (SD) Day 31 / Percent Inhibition Day 21 / Percent Inhibition Day 28 / Percent Inhibition Day 31: feces
[1] = tested on: Eimeria acervulina sporozoites; experiment: In vitro invasion of BHK cells by Eimeria acervulina sporozoites; type: cell-based
Protocol: (§1) Eineria acervulina sporozoites or Eimeria tenella sporozoites and cultured baby hamster kidney (BHK) cells were prepared by published methods. See Augustine, Avian and Poultry Biology Reviews 1:113-122, 2000. For cell pretreatment, cell cultures were overlaid with dilutions of enzymes as described in Table 11, and examined for morphological changes from 5 to 45 min post overlay. After 45 minutes, the monolayer cultures were washed twice, then inoculated with untreated E. acervulina or E. tenella sporozoites. For application during infection, sporozoites were suspended in the appropriate dilution of the enzyme and inoculated immediately into the cell cultures. After 45 minutes incubation, cultures were fixed, stained, and the invasion was quantified.
(§2) Observations were made looking for changes in gross morphology of sporozoites or cells due to enzyme treatment. At the enzyme levels used in these experiments, no morphological change was noted. The sporozoite invasion of the cultured cells was measured after the two methods of enzyme treatment, as well as without enzyme treatment, by histological staining and microscopy procedures. See Augustine, supra.

[2] = tested on: Eimeria tenella sporozoites; experiment: In vitro invasion of BHK cells by Eimeria tenella sporozoites; type: cell-based
Protocol: as §1, §2

[3] = Group A, 90 U/lb in feed, Day 3
[4] = Group A, 90 U/lb in feed, Day 7
[5] = Group A, 90 U/lb in feed, Day 10
[6] = Group A, 90 U/lb in feed, Day 14
[7] = Group A, 90 U/lb in feed, Day 17
[8] = Group A, 90 U/lb in feed, Day 21
[9] = Group A, 90 U/lb in feed, Day 24
[10] = Group B, 30 U/lb in feed, Day 3
[11] = Group B, 30 U/lb in feed, Day 7
[12] = Group B, 30 U/lb in feed, Day 10
[13] = Group B, 30 U/lb in feed, Day 14
[14] = Group B, 30 U/lb in feed, Day 17
[15] = Group B, 30 U/lb in feed, Day 21
[16] = Group B, 30 U/lb in feed, Day 24
[17] = Application of Enzyme During Infection, Test 1, recombinant PI-PLC 0.0261 U/mL
[18] = Application of Enzyme During Infection, Test 2, B. cereus PI-PLC 0.0403 U/mL, recombinant 0.261 U/mL, listed as PI-PLC from Recombinant B. megateriaum
[19] = Application of Enzyme During Infection, Test 2, recombinant PI-PLC 0.0261 U/mL
[20] = Cell Pretreatment with Enzyme Followed by Wash, Test 1, B. cereus PI-PLC 0.0403 U/mL, recombinant 0.261 U/mL, mannanase 5100 U/mL, listed as PI-PLC from Recombinant B. megateriaum
[21] = Cell Pretreatment with Enzyme Followed by Wash, Test 2, B. cereus PI-PLC 0.0403 U/mL, recombinant 0.261 U/mL, mannanase 5100 U/mL, listed as PI-PLC from Recombinant B. megateriaum
[22] = Cell Pretreatment with Enzyme Followed by Wash, Test 2, recombinant PI-PLC 0.0261 U/mL

“phosphatidylinositol specific phospholipase C [Recombinant PI-PLC]” was tested, and the “Feed (g) consumed/mouse/day AVG” value (Cryptosporidium; [3]) was 7.56 g, the “Weight (g) AVG” value (Cryptosporidium; [3]) was 16.67 g and the “Feed (g) consumed/mouse/day AVG” value (Cryptosporidium; [4]) was 8.31 g. The “Weight (g) AVG” value (Cryptosporidium; [4]) was 16.95 g, the “Feed (g) consumed/mouse/day AVG” value (Cryptosporidium; [5]) was 8.55 g and the “Weight (g) AVG” value (Cryptosporidium; [5]) was 17.29 g. The “Feed (g) consumed/mouse/day AVG” value (Cryptosporidium; [6]) was 7.78 g, the “Weight (g) AVG” value (Cryptosporidium; [6]) was 17.43 g and the “Feed (g) consumed/mouse/day AVG” value (Cryptosporidium; [7]) was 8.52 g. The “Weight (g) AVG” value (Cryptosporidium; [7]) was 17.64 g, the “Feed (g) consumed/mouse/day AVG” value (Cryptosporidium; [8]) was 7.89 g and the “Weight (g) AVG” value (Cryptosporidium; [8]) was 18.25 g. For the same substance, the “Feed (g) consumed/mouse/day AVG” value (Cryptosporidium; [9]) was 9.79 g, the “Weight (g) AVG” value (Cryptosporidium; [9]) was 18.2 g and the “Feed (g) consumed/mouse/day AVG” value (Cryptosporidium; [10]) was 6.13 g. The “Weight (g) AVG” value (Cryptosporidium; [10]) was 17.055 g, the “Feed (g) consumed/mouse/day AVG” value (Cryptosporidium; [11]) was 8.51 g and the “Weight (g) AVG” value (Cryptosporidium; [11]) was 16.91 g. The “Feed (g) consumed/mouse/day AVG” value (Cryptosporidium; [12]) was 7.93 g, the “Weight (g) AVG” value (Cryptosporidium; [12]) was 17.08 g and the “Feed (g) consumed/mouse/day AVG” value (Cryptosporidium; [13]) was 8.06 g. For the same substance, the “Weight (g) AVG” value (Cryptosporidium; [13]) was 17.62 g, the “Feed (g) consumed/mouse/day AVG” value (Cryptosporidium; [14]) was 8.53 g and the “Weight (g) AVG” value (Cryptosporidium; [14]) was 17.84 g. For the same substance, the “Feed (g) consumed/mouse/day AVG” value (Cryptosporidium; [15]) was 8.22 g, the “Weight (g) AVG” value (Cryptosporidium; [15]) was 18.62 g and the “Feed (g) consumed/mouse/day AVG” value (Cryptosporidium; [16]) was 8.3 g. For the same substance, the “Weight (g) AVG” value (Cryptosporidium; [16]) was 18.63 g, the “reduction in parasite load in the treated groups” value (Cryptosporidium; feces at 3, 4 and 4.5 weeks post-infection, 30 or 90 U/lb) was 34-54% and the “Parasite load (SD) Day 21” value (Cryptosporidium; 30 U/lb in feed) was 16.2 (4.7) oocysts/100 μl. For the same substance, the “Parasite load (SD) Day 28” value (Cryptosporidium; 30 U/lb in feed) was 23.4 (11)* oocysts/100 μl, the “Parasite load (SD) Day 31” value (Cryptosporidium; 30 U/lb in feed) was 74.3 (89.7)^+ oocysts/100 μl and the “Percent Inhibition Day 21” value (Cryptosporidium; 30 U/lb in feed) was 52.0%. For the same substance, the “Percent Inhibition Day 28” value (Cryptosporidium; 30 U/lb in feed) was 54.6%, the “Percent Inhibition Day 31” value (Cryptosporidium; 30 U/lb in feed) was 40.0% and the “Parasite load (SD) Day 21” value (Cryptosporidium; 90 U/lb in feed) was 22.7 (11.4) oocysts/100 μl. The “Parasite load (SD) Day 28” value (Cryptosporidium; 90 U/lb in feed) was 26.3 (14)* oocysts/100 μl, the “Parasite load (SD) Day 31” value (Cryptosporidium; 90 U/lb in feed) was 87.5 (52.9) oocysts/100 μl and the “Percent Inhibition Day 21” value (Cryptosporidium; 90 U/lb in feed) was 44.0%. The “Percent Inhibition Day 28” value (Cryptosporidium; 90 U/lb in feed) was 48.9%, the “Percent Inhibition Day 31” value (Cryptosporidium; 90 U/lb in feed) was 34.0% and the “Invasion counts (mean ± standard error of the mean)” value ([1]; Application of Enzyme During Infection, Test 1, B. cereus PI-PLC 0.0403 U/mL, recombinant 0.261 U/mL, listed as PI-PLC from Recombinant B. megateriaum) was 16 ± 2^c. For the same substance, the “Invasion counts (mean ± standard error of the mean)” value [1, 17] was 36 ± 3^b, the “Invasion counts (mean ± standard error of the mean)” value [1, 18] was 18 ± 1^bc and the “Invasion counts (mean ± standard error of the mean)” value [1, 19] was 9 ± 2^c. For the same substance, the “Invasion counts (mean ± standard error of the mean)” value [1, 20] was 14 ± 1^b, the “Invasion counts (mean ± standard error of the mean)” value ([1]; Cell Pretreatment with Enzyme Followed by Wash, Test 1, recombinant PI-PLC 0.0261 U/mL) was 18 ± 1^ab and the “Invasion counts (mean ± standard error of the mean)” value [1, 21] was 22 ± 1^b. The “Invasion counts (mean ± standard error of the mean)” value [1, 22] was 26 ± 1^ab, the “Invasion counts (mean ± standard error of the mean)” value ([2]; Application of Enzyme During Infection, Test 1, B. cereus PI-PLC 0.0403 U/mL, recombinant 0.261 U/mL, mannanase 5100 U/mL, listed as PI-PLC from Recombinant B. megateriaum) was 28 ± 2^b and the “Invasion counts (mean ± standard error of the mean)” value [2, 17] was 18 ± 1^c. For the same substance, the “Invasion counts (mean ± standard error of the mean)” value [2, 18] was 39 ± 4^ab, the “Invasion counts (mean ± standard error of the mean)” value [2, 19] was 29 ± 1^b and the “Invasion counts (mean ± standard error of the mean)” value [2, 20] was 30 ± 1^c. For the same substance, the “Invasion counts (mean ± standard error of the mean)” value [2, 21] was 15 ± 0^a and the “Invasion counts (mean ± standard error of the mean)” value [2, 22] was 17 ± 1^a.
